One may read the Kd as the constant that tells how readily two partners part at equilibrium.

Holding throughout (experiment): SPR, his-tagged MTP-2 ECD protein (Table W)
In general terms: In SPR one partner is held on a chip, and binding of the other changes the refractive index at the surface.

In assay [1] the target is T1, cyno matriptase-2 ECD protein his tag (cynomolgus, UniProt Q8IU80 84-811 (human entry)).
T1 construct: aa 73-800 of A0A2K5VAP0 with C-terminal linker and His tag; also called cynomolgus MTP-2 ECD
T1 chain: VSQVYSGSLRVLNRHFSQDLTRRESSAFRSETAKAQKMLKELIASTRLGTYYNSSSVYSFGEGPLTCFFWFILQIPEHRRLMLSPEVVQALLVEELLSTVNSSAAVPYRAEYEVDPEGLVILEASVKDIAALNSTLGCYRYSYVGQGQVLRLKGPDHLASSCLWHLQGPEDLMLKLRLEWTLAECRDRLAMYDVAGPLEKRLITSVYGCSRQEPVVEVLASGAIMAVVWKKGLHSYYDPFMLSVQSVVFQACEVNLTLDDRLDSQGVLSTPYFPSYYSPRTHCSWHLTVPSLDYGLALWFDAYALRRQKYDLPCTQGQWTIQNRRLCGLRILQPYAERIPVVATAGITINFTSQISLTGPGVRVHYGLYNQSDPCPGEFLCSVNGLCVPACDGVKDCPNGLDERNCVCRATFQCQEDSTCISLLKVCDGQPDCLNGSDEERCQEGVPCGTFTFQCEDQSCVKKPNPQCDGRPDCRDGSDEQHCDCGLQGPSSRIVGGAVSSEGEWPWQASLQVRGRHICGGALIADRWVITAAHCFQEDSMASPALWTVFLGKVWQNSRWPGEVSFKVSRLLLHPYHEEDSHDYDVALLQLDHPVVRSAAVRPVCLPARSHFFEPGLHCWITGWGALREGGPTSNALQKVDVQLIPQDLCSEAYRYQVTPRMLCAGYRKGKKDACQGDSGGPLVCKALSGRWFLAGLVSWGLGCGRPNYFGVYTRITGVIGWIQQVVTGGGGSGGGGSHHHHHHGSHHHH
On the procedure: (§1) Off-rate screening was performed by surface plasmon resonance (SPR), using a Biacore 8K system (GE Healthcare). Anti-human Fc mix (˜1000 RU) were immobilised in both active and reference channels in HBS-P+ buffer (GE BR100671) pH 7.4. Anti-MTP-2 hulgG4PE antibodies were then captured for 60 sec at 10 μl/min at 1 μg/ml concentration (approximatively 35 and 50 RU were captured) only on the active channel. MTP-2 ECD protein analytes were then injected (at 100, 25, 6.25, 1.56 and 0 nM concentrations) for 120 sec (association time) at 30 μl/min and dissociation monitored for 600 sec. Multiple cycle kinetics mode was used with all 8 channels being used. Reference and background were subtracted from the sensorgrams for each antibody and data was fitted using a 1:1 interaction model in the Biacore evaluation software. Rmax, ka, kd globally fitted, RI=0.
(§2) NORI-011, NORI-008, NORI-003 and NORI-006 were all found to have cross-reactive binding to human, mouse, cyno and rat MTP-2 ECD proteins. […] The true KD value for NORI-008 could not be measured accurately for human or mouse MTP-2 due to a very slow off-rate.

The target of assay [2] is T2, mouse matriptase-2 ECD protein his tag (mouse, UniProt Q9DBI0 80-811).
T2 construct: aa 80-811 of Q9DBI0 with C-terminal linker and His tag; also called mouse MTP-2 ECD; moMTP-2
T2 sequence: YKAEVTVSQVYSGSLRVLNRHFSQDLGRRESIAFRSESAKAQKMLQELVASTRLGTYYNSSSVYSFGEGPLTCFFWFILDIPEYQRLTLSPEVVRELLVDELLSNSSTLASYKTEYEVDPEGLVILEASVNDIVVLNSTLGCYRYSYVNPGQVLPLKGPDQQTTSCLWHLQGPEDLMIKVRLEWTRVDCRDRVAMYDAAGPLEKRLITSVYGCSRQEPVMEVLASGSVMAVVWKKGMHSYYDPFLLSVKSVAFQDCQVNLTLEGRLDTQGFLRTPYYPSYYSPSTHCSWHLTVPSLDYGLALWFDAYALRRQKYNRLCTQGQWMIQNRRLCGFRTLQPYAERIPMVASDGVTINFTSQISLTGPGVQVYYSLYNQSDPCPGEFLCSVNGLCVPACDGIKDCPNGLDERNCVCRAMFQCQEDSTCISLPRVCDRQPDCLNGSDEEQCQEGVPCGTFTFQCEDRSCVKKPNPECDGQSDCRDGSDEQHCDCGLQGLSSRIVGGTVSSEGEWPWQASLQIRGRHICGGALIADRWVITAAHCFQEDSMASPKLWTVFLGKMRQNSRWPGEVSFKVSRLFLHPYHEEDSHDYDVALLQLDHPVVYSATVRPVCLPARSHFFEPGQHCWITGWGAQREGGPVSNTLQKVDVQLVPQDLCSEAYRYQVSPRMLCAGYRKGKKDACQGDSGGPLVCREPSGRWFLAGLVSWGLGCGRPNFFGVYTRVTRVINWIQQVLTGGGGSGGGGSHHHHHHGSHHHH
On the procedure:
as §1, §2

In assay [3] the target is T3, human matriptase-2 ECD protein his tag (human, UniProt Q8IU80 78-811).
T3 construct: also called human MTP-2 ECD; huMTP-2
T3 sequence: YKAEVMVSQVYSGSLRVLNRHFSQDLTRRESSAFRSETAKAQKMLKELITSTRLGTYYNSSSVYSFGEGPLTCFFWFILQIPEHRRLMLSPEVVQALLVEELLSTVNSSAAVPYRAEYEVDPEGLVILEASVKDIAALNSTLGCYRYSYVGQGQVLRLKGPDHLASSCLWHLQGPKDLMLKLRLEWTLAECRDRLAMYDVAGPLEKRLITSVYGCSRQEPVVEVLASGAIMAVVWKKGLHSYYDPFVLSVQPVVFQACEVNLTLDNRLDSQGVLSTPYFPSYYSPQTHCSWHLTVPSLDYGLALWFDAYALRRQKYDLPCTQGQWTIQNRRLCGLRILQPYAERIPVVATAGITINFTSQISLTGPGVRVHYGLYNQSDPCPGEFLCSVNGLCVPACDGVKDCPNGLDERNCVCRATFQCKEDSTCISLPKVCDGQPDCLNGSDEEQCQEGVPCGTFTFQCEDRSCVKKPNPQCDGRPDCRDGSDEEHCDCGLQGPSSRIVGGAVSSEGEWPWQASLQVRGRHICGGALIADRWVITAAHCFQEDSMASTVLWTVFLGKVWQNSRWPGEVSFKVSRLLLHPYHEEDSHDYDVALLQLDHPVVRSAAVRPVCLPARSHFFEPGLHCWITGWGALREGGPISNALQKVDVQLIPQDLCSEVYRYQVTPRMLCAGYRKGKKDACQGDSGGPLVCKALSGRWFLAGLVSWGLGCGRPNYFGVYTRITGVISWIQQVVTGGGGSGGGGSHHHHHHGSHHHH
The procedure: as §1, §2

B1: NORI-006 (antibody, human IgG4 S228P, kappa, V domains shown)
VH: EVQLVESGGGLIKPGRSLRLSCTGSGFTFGDFGLSWFRQAPGKGLEWISFIRSKPYGGTTDYAASVKGRFTISRDDSKNVAYLQMNSLKTEDTAVYYCARNEILTGYYIFDYWGQGTLVTVSS
VL: DIQMTQSPSSLSASLGDRVTITCQASQDINNYLNWYQVQPGKAPKLLIFDASILETGVPSRFSGSGSGTDFSFTISSLQPEDIATYYCQQYDNLPLTFGGGTKVDFKR
notes: human IgG4PE, kappa
On to B1, for which the Kd in assay [1] is 0.824 nM; in assay [2] it was 27 nM; in assay [3], 2.93 nM.

B2: NORI-003 (antibody, human IgG4 S228P, kappa, V domains shown)
VH: EVQLVESGGGLVKPGRSLRLSCTGSGFTFGDFGMSWFRQAPGKGLEWVGFIRSKPYGGTTDYAPSVRGRFSISRDDSKGIVYLQMNSLRTEDTAVYYCSRNEILTGYYIFDYWGQGTLVTVSS
VL: DIQMTQSPSSLSASLGDRVTITCQASHDITNYLIWYQQKPGKAPRLLIFDASILETGVPSRFSGSGSGTDFTFTISSLQPEDFATYYCQQYYNLPLTFGGGTKVDIKR
notes: human IgG4PE, kappa; NORI-002 with the free cysteine of the VH domain mutated (printed as 'C49C')
In the case of B2, the Kd in assay [1] came out at 1.76 nM; in assay [2], 28.9 nM; in assay [3], 5.24 nM.

B3: NORI-011 (antibody, human IgG4 S228P, lambda)
heavy: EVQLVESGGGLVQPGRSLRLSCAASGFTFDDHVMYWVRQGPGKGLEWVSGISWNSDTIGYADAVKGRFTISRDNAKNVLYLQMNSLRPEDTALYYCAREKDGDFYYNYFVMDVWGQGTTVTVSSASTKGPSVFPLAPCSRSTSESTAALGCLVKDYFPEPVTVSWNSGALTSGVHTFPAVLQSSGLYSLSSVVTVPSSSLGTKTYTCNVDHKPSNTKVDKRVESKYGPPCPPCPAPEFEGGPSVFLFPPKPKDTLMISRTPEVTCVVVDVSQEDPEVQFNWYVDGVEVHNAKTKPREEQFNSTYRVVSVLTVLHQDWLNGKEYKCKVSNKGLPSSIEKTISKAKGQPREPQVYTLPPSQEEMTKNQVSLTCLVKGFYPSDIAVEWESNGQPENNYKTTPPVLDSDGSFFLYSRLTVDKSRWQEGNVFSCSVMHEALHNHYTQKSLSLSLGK
light: QSALTQPPSASGSPGQSVTISCTGTSSDVGFYNFVSWYQQHPDKAPKVMIYEVSKRPSGVPDRFSGSKSGNTASLTVSGLQAEDEADYYCSSYAGSNKVVFGGGTKLTVLGQPKAAPSVTLFPPSSEELQANKATLVCLISDFYPGAVTVAWKADSSPVKAGVETTTPSKQSNNKYAASSYLSLTPEQWKSHRSYSCQVTHEGSTVEKTVAPTECS
notes: human IgG4PE, lambda; NORI-010 with a P124S mutation in the VH domain
B3: the Kd was 2.17 nM in assay [1], 9 nM in assay [2] and 5.61 nM in assay [3].

B4: NORI-008 (antibody, human IgG4 S228P, kappa, V domains shown)
VH: QVQLQESGPGLVKPSETLSLTCSVSGGSVSSGRYYWTWIRQPPGKGLEWIGYISNSGNTNYNPSLKSRVTISLDTSKKQFSLSLSAVTAADTAVYYCARGFIYDYWFDPWGQGSLVTVSS
VL: DSQMTQSPSSLSASVGDRVTITCQASQDIDNYLNWYQQRPGKAPKLLIYDASKLETGVPSRFSGSGSGTDFTFTISSLQPEDFATYYCQQYGNLPITFGQGTRLDIKR
notes: human IgG4PE, kappa, in the in vitro assays; a mouse IgG1 format was used in one in vivo study only; also called NORI-008 hulgG4PE; NORI-008 IgG
In assay [1], B4 gave a Kd of 0.0104 nM.
